Results from paper PMC11291303.

Columns and labels:
[1] = biological target: turnip mosaic virus (TuMV) isolate YC5 VPg D113G (turnip mosaic virus isolate YC5); test: two-hybrid
[2] = biological target: turnip mosaic virus (TuMV) isolate YC5 VPg R118H (turnip mosaic virus isolate YC5); test: two-hybrid

ARM-REPEAT SU… PROTEIN (AT5G62580) (natural protein)
percent reduction in binding strength compared to VPg^wt [1]: 28.8%

FRUCTOKINASE-LIKE 1 (FLN1) protein (natural protein)
percent weaker interaction than with VPg^wt [1]: 36.5% | percent weaker interaction than with VPg^wt [2]: 36.5%

MITOCHONDRIAL GLYCOPROTEIN FAMILY PROTEIN (AT1G15870) (natural protein)
percent stronger binding than VPg^wt [2]: 36.2%

MYOSIN 3 (MYOS3) protein (natural protein)
percent stronger binding than VPg^wt [2]: 27.5%

PROLINE RICH MITOTIC CHECKPOINT CONTROL FACTOR (PRCC) (natural protein)
percent stronger binding than VPg^wt [2]: 22.5%

PYRUVATE ORTHOPHOSPHATE DIKINASE (PPDK) REGULATORY PROTEIN 1 (RP1) (natural protein)
percent stronger binding than VPg^wt [2]: 47.1%

ROS1-ASSOCIATED HOMEODOMAIN PROTEIN 1 (RHD1) (natural protein)
percent decrease in binding affinity compared to VPg^wt [1]: 22.6% | percent increase in binding affinity compared to VPg^wt [2]: 17.4%

eukaryotic translation initiation factor (iso)4E (natural protein)
percent weaker interaction than with VPg^wt [1]: 90.5% | percent weaker interaction than with VPg^wt [2]: 90.5%
